Normalised SPOT signal, Boehringer light units (BLU); mean over the file's lines of this peptide data for 38 molecules are collected here from publication PMC314469, “Protein Interaction Networks by Proteome Peptide Scanning” (PLoS Biology, 2004).

The target in assay [1] is T1, amphyphisin SH3 (AMPH_HUMAN), P49418.
T1 chain: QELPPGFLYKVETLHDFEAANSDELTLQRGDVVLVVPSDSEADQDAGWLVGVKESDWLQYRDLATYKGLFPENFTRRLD
The assay can be described thus: SPOT array.

Assay [2] deals with endophilin SH3 (SH3G2_HUMAN), Q99962. Description: SPOT array.

B1: Q9NRJ4 1113-1126 (peptide)
chain: AAVTLKRPPPYQWD
In the case of B1, the normalised SPOT signal, Boehringer light units (BLU); mean over the file's lines of this peptide is 42.1 in assay [1] and 61.6 in assay [2].

B2: P34969 436-449 (peptide)
chain: TRRVLLRPEKRPPV
As for B2, the normalised SPOT signal, Boehringer light units (BLU); mean over the file's lines of this peptide in assay [1] was found to be 177; in assay [2], 123.

B3: Q9BQL3 97-111 (peptide)
chain: TRSPPPRPPPPAIN
As for B3, the normalised SPOT signal, Boehringer light units (BLU); mean over the file's lines of this peptide was determined as 1400 in assay [1] and 13300 in assay [2].

B4: Q9C0H3 154-168 (peptide)
chain: TTRRPPRPPGSSRK
As for B4, the values for the normalised SPOT signal, Boehringer light units (BLU); mean over the file's lines of this peptide in assay [1] and in assay [2] were 3160 and 11100, respectively.

B5: Q16632 107-120 (peptide)
chain: TRKGPKRPQQPNPP
As to B5, the normalised SPOT signal, Boehringer light units (BLU); mean over the file's lines of this peptide in assay [1] was 46.7; in assay [2] it was 2280.

B6: P57073 407-420 (peptide)
chain: SFHSPRRPYASPLL
Consider B6, for which the normalised SPOT signal, Boehringer light units (BLU); mean over the file's lines of this peptide was 71 in assay [1] and 1100 in assay [2].

B7: Q92914 53-66 (peptide)
chain: SGGRPARPDRGPEP
For the molecule B7, the values for the normalised SPOT signal, Boehringer light units (BLU); mean over the file's lines of this peptide in assay [1] and in assay [2] were 1740 and 2500, respectively.

B8: Q14333 228-241 (peptide)
chain: TRESIVRPSRRGGI
As to B8, the normalised SPOT signal, Boehringer light units (BLU); mean over the file's lines of this peptide in assay [1] turned out to be 1320; in assay [2] it was 89.5.

B9: Q05707 817-831 (peptide)
chain: TQSLPTRPPTFPPT
Turning to B9, the normalised SPOT signal, Boehringer light units (BLU); mean over the file's lines of this peptide is 78.8 in assay [1] and 1190 in assay [2].

B10: Q96F98 1-15 (peptide)
chain: TRGRPTRPPTRPPT
As to B10, the normalised SPOT signal, Boehringer light units (BLU); mean over the file's lines of this peptide in assay [1] amounted to 913; in assay [2], 8360.

B11: Q9UKN4 408-422 (peptide)
chain: TSAPPSRPPPPRAT
In the case of B11, the normalised SPOT signal, Boehringer light units (BLU); mean over the file's lines of this peptide in assay [1] came out at 5540; in assay [2] it was 14100.

B12: Q9H9L7 3-16 (peptide)
chain: SGATLKRPMEFEAA
In the case of B12, the results for the normalised SPOT signal, Boehringer light units (BLU); mean over the file's lines of this peptide in assay [1] and in assay [2] were 31.6 and 0, respectively.

B13: O15054 552-565 (peptide)
chain: TSGSFRRPESPRPR
B13: the normalised SPOT signal, Boehringer light units (BLU); mean over the file's lines of this peptide was 57.4 in assay [1] and 67.6 in assay [2].

B14: Q9BZH3 389-402 (peptide)
chain: TQPVLKRPRHVHSH
For the molecule B14, the figures for the normalised SPOT signal, Boehringer light units (BLU); mean over the file's lines of this peptide in assay [1] and in assay [2] were 46.6 and 60.5, respectively.

B15: Q15477 130-143 (peptide)
chain: TSLSLRRPPGPASQ
As for B15, the figures for the normalised SPOT signal, Boehringer light units (BLU); mean over the file's lines of this peptide in assay [1] and in assay [2] were 33.9 and 26.8, respectively.

B16: P30304 268-281 (peptide)
chain: TRSVLKRPERSQEE
For the molecule B16, the normalised SPOT signal, Boehringer light units (BLU); mean over the file's lines of this peptide in assay [1] worked out at 89.1; in assay [2] it was 54.1.

B17: Q9P2Z0 180-193 (peptide)
chain: TQISLKRPRHRSVG
Turning to B17, the normalised SPOT signal, Boehringer light units (BLU); mean over the file's lines of this peptide in assay [1] is 6.5; in assay [2], 27.6.

B18: P58840 117-131 (peptide)
chain: TRPPPIRPPFSHPL
For the molecule B18, the normalised SPOT signal, Boehringer light units (BLU); mean over the file's lines of this peptide is 567 in assay [1] and 8780 in assay [2].

B19: P82251 399-412 (peptide)
chain: TRKELERPIKVPVV
Consider B19, for which the normalised SPOT signal, Boehringer light units (BLU); mean over the file's lines of this peptide in assay [1] was determined as 0; in assay [2], 324.

B20: Q9BZW3 294-307 (peptide)
chain: SEVPLKRPRLDKNS
For B20, the values for the normalised SPOT signal, Boehringer light units (BLU); mean over the file's lines of this peptide in assay [1] and in assay [2] were 45.5 and 65.5, respectively.

B21: Q96KN1 287-301 (peptide)
chain: TTPPPGRPPAPSSE
As for B21, the results for the normalised SPOT signal, Boehringer light units (BLU); mean over the file's lines of this peptide in assay [1] and in assay [2] were 24.7 and 4930, respectively.

B22: P29316 42-55 (peptide)
chain: TSPTFRRPKTLRLR
With B22, the normalised SPOT signal, Boehringer light units (BLU); mean over the file's lines of this peptide came out at 56.7 in assay [1] and 54.7 in assay [2].

B23: Q9NP08 321-335 (peptide)
chain: TRWPPSRPPPPSPF
With B23, the normalised SPOT signal, Boehringer light units (BLU); mean over the file's lines of this peptide stood at 363 in assay [1] and 7730 in assay [2].

B24: O14730 137-150 (peptide)
chain: TRDDPYRPAKPVPT
With B24, the normalised SPOT signal, Boehringer light units (BLU); mean over the file's lines of this peptide in assay [1] was 4.8; in assay [2], 68.1.

B25: O75334 571-584 (peptide)
chain: TTKVIRRPRRGRMG
Consider B25, for which the normalised SPOT signal, Boehringer light units (BLU); mean over the file's lines of this peptide in assay [1] turned out to be 118; in assay [2], 150.

B26: Q9UQD1 353-366 (peptide)
chain: TSPAPHRPPKRGPL
As to B26, the normalised SPOT signal, Boehringer light units (BLU); mean over the file's lines of this peptide in assay [1] came to 220; in assay [2], 4010.

B27: P33121 45-59 (peptide)
chain: TRPKPLKPPSDLSM
As for B27, the normalised SPOT signal, Boehringer light units (BLU); mean over the file's lines of this peptide in assay [1] was 90.5; in assay [2] it was 451.

B28: Q9P2S2 1586-1599 (peptide)
chain: TSFEPRRPPPLRPG
Turning to B28, the normalised SPOT signal, Boehringer light units (BLU); mean over the file's lines of this peptide came to 32.4 in assay [1] and 210 in assay [2].

B29: Q13135 548-561 (peptide)
chain: TSAVLRRPQKGRLA
As for B29, the normalised SPOT signal, Boehringer light units (BLU); mean over the file's lines of this peptide was determined as 84.9 in assay [1] and 138 in assay [2].

B30: Q9H2L5 83-96 (peptide)
chain: TSWMPRRPSSPLKE
Turning to B30, the normalised SPOT signal, Boehringer light units (BLU); mean over the file's lines of this peptide was found to be 36.5 in assay [1] and 684 in assay [2].

B31: Q9NRC7 337-350 (peptide)
chain: TSPAPHRPPKRVKA
In the case of B31, the normalised SPOT signal, Boehringer light units (BLU); mean over the file's lines of this peptide in assay [1] is -0; in assay [2], 4.2.

B32: Q9ULT9 312-325 (peptide)
chain: TRTDPTRPIRTPVI
For B32, the values for the normalised SPOT signal, Boehringer light units (BLU); mean over the file's lines of this peptide in assay [1] and in assay [2] were 568 and 96.3, respectively.

B33: P10323 306-320 (peptide)
chain: TRPPPIRPPFSHPI
Take B33: the normalised SPOT signal, Boehringer light units (BLU); mean over the file's lines of this peptide in assay [1] was 804; in assay [2], 10400.

B34: Q13424 330-343 (peptide)
chain: TREALSRPARTAPL
For the molecule B34, the normalised SPOT signal, Boehringer light units (BLU); mean over the file's lines of this peptide in assay [1] was 440; in assay [2], 216.

B35: Q96EK0 35-48 (peptide)
chain: TRVQPRRPTKGTHR
As for B35, the normalised SPOT signal, Boehringer light units (BLU); mean over the file's lines of this peptide in assay [1] stood at 38; in assay [2], 138.

B36: P46778 10-23 (peptide)
chain: TRYMFSRPFRKHGV
Consider B36, for which the figures for the normalised SPOT signal, Boehringer light units (BLU); mean over the file's lines of this peptide in assay [1] and in assay [2] were 2180 and 534, respectively.

B37: O94942 425-438 (peptide)
chain: TSVPLARPLRTSEE
For the molecule B37, the results for the normalised SPOT signal, Boehringer light units (BLU); mean over the file's lines of this peptide in assay [1] and in assay [2] were 161 and 186, respectively.

B38: O60281 946-959 (peptide)
chain: TRYSPYRPYRSVHQ
As to B38, the normalised SPOT signal, Boehringer light units (BLU); mean over the file's lines of this peptide in assay [1] was 1000; in assay [2], 913.
